Where no end group is shown, it is not given here.
T1: PKC-ε (endogenous, IMR-32 lysate) (human, UniProt Q02156 1-737)
T1 construct: Band 1 and Band 2 (alternate splicing variants, not identified further) are kept under one molecule; the band is named in the assay field of each row; also called PKC-epsilon; PKC-ε Band 1
T1 sequence (looked up): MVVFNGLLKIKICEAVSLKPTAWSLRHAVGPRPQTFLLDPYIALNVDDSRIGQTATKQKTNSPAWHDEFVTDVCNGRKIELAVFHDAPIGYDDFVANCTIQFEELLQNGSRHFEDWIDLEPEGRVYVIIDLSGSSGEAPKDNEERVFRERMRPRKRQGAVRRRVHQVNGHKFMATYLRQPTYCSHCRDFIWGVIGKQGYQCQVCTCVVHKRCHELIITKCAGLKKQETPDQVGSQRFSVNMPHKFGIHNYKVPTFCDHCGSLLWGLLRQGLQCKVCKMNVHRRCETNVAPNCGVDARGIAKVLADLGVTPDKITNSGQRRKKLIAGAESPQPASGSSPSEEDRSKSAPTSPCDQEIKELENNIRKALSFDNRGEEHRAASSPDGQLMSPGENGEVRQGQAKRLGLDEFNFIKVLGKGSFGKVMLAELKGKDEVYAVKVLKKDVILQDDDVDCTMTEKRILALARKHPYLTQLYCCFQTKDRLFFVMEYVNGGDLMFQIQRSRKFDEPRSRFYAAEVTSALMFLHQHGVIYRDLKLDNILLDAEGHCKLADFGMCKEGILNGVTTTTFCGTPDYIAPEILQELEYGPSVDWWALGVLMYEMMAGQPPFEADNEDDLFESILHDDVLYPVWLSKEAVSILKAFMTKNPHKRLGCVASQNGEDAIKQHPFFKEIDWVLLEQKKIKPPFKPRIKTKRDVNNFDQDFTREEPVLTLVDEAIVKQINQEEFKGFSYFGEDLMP


What was measured:
[1] = biological target: T1, PKC-ε (endogenous, IMR-32 lysate); assay: WB competition Protocol B, IMR-32 extract, vs anti-PKC-ε Ab; PKC-ε Band 2; 100 µg peptide
Description: (§1) The ability of the peptides PRE 2 and PRE 3 (see Table 4) to interfere with the binding of a PKC-α-specific polyclonal antibody (Santa Cruz Biotechnology, Inc.) to PKC-α was determined using a modified version of the protocol outlined above in which the test peptide was added directly to the cell extract prior to electrophoresis at a concentration of either 5× or 15× the concentration of the protein applied to each well of the gel for the Western blots (20 μg).
(§2) Peptides PRE 2, PRE 3 and PRE 4 (see Table 4) were tested for their ability to interfere with the binding of isoform-specific polyclonal antibodies (Santa Cruz Biotechnology, Inc.) to […] using the general protocol described in Example 3. Two bands, representing alternate splicing variants of PKC-ε, were identified on the Western blot using this anti-PKC-ε antibody.

[2] = biological target: T1, PKC-ε (endogenous, IMR-32 lysate); assay: WB competition Protocol B, IMR-32 extract, vs anti-PKC-ε Ab; PKC-ε Band 2; 20 µg peptide
Description: as §1, §2

[3] = biological target: T1, PKC-ε (endogenous, IMR-32 lysate); assay: WB competition Protocol B, IMR-32 extract, vs anti-PKC-ε Ab; PKC-ε Band 1; 100 µg peptide
Description: as §1, §2

[4] = biological target: T1, PKC-ε (endogenous, IMR-32 lysate); assay: WB competition Protocol B, IMR-32 extract, vs anti-PKC-ε Ab; PKC-ε Band 2; 50 µg peptide
Description: as §1, §2

[5] = biological target: T1, PKC-ε (endogenous, IMR-32 lysate); assay: WB competition Protocol B, IMR-32 extract, vs anti-PKC-ε Ab; PKC-ε Band 1; 50 µg peptide
Description: as §1, §2

[6] = biological target: T1, PKC-ε (endogenous, IMR-32 lysate); assay: WB competition Protocol B, IMR-32 extract, vs anti-PKC-ε Ab; PKC-ε Band 1; 20 µg peptide
Description: as §1, §2

[7] = biological target: T2, PKC-βII (purified isoform) (Homo sapiens (Human), UniProt P05771 2-621); assay: competitive ELISA, coated purified PKC-βII, vs anti-PKC βII (SC-210); PRE 200 µM
T2 construct: also called PKC-beta II; PKC beta 2
T2 sequence (P05771 other isoform, or with tags, fused parts or gaps limits assumed): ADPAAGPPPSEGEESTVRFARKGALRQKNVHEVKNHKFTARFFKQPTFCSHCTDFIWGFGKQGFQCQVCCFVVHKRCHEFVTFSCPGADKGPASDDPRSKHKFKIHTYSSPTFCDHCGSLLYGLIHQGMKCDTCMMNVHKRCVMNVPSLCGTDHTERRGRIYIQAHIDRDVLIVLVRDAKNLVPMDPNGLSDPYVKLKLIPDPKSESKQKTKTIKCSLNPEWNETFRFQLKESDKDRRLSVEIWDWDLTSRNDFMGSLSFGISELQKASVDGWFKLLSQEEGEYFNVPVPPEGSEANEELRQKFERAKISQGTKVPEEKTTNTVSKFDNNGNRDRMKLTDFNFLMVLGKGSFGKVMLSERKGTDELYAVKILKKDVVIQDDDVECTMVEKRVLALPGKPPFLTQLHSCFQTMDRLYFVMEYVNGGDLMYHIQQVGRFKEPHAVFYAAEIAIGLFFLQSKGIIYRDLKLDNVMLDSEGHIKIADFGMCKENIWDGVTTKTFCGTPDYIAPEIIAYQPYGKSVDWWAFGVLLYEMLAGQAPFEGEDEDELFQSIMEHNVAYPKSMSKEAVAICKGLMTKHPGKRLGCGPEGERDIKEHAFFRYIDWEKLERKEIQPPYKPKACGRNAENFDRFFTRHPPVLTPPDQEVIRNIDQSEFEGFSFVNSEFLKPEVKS
Description: (§3) Greiner 96 well ELISA plates were coated with the appropriate PKC isoform diluted in PBSN (PBS with Calcium/Magnesium+0.05% Sodium azide w/w). 50 μL/well at 250 ng/mL was used. Control wells contained PBSN only. Plates were incubated overnight at 4° C.
(§4) The plates were washed 3 times with 200 μL of dH₂O per well, then 100 μL of blocking solution was added per well and the plate incubated for 1 h at 37° C. The washing steps with dH₂O were repeated and 50 μL of the appropriate PRE solution (PRE stock solution [20 mM in DMSO] diluted in PBSN) was added and the plate incubated for 1 h at room temperature.
(§5) 50 μL of 1:1000 dilution of Alkaline Phosphatase (AP) conjugated antibody (anti-rabbit for all except zeta, which was anti-goat) was then added and the plate incubated for 1 h at room temperature. Washing with dH₂O was then repeated. Finally, 100 μL of pNPP solution in pNPP buffer (2 mM MgCl₂, 100 mM Sodium bicarbonate in water, pH 9.8) was added to all wells and incubated for 8 minutes for α, βI, βII ε, and ζ, or for 15-20 mins for δ (until sufficient coloration is observed). The reaction was stopped by addition of Stop solution (2N NaOH) and the absorbance at 405 nm was read on a Galaxy Plate reader.

PKC-α (purified isoform) [8] = biological target: T3, PKC-α (purified isoform) (Homo sapiens (Human), UniProt P17252 2-672); assay: competitive ELISA, coated purified PKC-α, vs anti-PKC α (SC-208); PRE 100 µM
T3 construct: also called purified PKC-alpha; commercially purified PKC-alpha
Description: as §3, §4, §5

PKC-δ (purified isoform) [9] = biological target: T4, PKC-δ (purified isoform); assay: competitive ELISA, coated purified PKC-δ, vs anti-PKC δ (SC-213); PRE 200 µM
T4 construct: also called PKC-delta
T4 sequence (Q05655 whole entry, stated change not applied, canonical isoform): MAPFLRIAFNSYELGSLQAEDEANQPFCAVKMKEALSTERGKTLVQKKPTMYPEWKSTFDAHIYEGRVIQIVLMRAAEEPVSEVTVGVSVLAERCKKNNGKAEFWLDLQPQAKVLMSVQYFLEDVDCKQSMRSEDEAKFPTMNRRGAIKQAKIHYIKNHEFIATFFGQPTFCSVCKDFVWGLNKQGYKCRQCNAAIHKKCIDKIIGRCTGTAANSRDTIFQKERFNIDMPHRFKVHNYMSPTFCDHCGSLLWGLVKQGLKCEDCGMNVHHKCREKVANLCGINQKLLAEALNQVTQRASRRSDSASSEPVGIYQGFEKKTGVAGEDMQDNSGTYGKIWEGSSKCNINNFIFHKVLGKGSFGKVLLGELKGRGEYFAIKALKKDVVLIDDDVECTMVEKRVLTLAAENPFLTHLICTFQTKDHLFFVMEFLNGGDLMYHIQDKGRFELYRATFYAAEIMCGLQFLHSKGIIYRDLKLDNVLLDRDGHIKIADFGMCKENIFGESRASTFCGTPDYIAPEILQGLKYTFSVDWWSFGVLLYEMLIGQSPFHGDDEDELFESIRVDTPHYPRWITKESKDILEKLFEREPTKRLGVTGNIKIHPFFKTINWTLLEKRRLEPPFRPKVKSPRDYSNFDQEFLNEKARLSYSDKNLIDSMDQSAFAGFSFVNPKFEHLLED
Description: as §3, §4, §5

PKC-δ (purified isoform) [10] = biological target: T4, PKC-δ (purified isoform); assay: competitive ELISA, coated purified PKC-δ, vs anti-PKC δ (SC-213); PRE 50 µM
Description: as §3, §4, §5

PKC-α (purified isoform) [11] = biological target: T3, PKC-α (purified isoform); assay: competitive ELISA, coated purified PKC-α, vs anti-PKC α (SC-208); PRE 200 µM
Description: as §3, §4, §5

[12] = biological target: T2, PKC-βII (purified isoform); assay: competitive ELISA, coated purified PKC-βII, vs anti-PKC βII (SC-210); PRE 100 µM
Description: as §3, §4, §5

[13] = biological target: T2, PKC-βII (purified isoform); assay: competitive ELISA, coated purified PKC-βII, vs anti-PKC βII (SC-210); PRE 50 µM
Description: as §3, §4, §5

PKC-δ (purified isoform) [14] = biological target: T4, PKC-δ (purified isoform); assay: competitive ELISA, coated purified PKC-δ, vs anti-PKC δ (SC-213); PRE 100 µM
Description: as §3, §4, §5

PKC-α (purified isoform) [15] = biological target: T3, PKC-α (purified isoform); assay: competitive ELISA, coated purified PKC-α, vs anti-PKC α (SC-208); PRE 50 µM
Description: as §3, §4, §5

[16] = biological target: T5, PKC-βI (purified isoform) (Homo sapiens (Human), UniProt P05771 2-671); assay: competitive ELISA, coated purified PKC-βI, vs anti-PKC βI (SC-209); PRE 200 µM
T5 construct: also called PKC-beta I; PKC beta 1
T5 sequence (P05771 2-671 limits assumed): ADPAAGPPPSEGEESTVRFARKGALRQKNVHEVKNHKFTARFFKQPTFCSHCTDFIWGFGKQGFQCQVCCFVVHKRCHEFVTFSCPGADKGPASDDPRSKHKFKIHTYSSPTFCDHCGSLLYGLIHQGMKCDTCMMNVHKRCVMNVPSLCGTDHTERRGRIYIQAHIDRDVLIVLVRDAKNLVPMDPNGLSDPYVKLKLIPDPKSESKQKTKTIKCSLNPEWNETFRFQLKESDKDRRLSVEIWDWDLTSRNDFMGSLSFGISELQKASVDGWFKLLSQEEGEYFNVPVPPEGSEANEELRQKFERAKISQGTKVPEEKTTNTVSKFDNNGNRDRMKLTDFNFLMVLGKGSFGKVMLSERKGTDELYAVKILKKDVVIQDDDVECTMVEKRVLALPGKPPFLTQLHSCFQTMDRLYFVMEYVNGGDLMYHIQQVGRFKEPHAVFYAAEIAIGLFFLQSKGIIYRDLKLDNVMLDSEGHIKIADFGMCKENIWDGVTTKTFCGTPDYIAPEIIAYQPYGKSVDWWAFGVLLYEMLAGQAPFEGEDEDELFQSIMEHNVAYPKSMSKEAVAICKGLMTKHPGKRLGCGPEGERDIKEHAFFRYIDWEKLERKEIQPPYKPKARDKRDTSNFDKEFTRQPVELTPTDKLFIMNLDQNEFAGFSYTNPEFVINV
Description: as §3, §4, §5

[17] = biological target: T5, PKC-βI (purified isoform); assay: competitive ELISA, coated purified PKC-βI, vs anti-PKC βI (SC-209); PRE 50 µM
Description: as §3, §4, §5

[18] = biological target: T5, PKC-βI (purified isoform); assay: competitive ELISA, coated purified PKC-βI, vs anti-PKC βI (SC-209); PRE 100 µM
Description: as §3, §4, §5

| Binder | relative binding capacity (100-%n, DMSO subtracted) [7] [%] | relative binding capacity (100-%n, DMSO subtracted) (PKC-α (purified isoform) [8]) [%] | relative binding capacity (100-%n, DMSO subtracted) (PKC-δ (purified isoform) [9]) [%] | relative binding capacity (100-%n, DMSO subtracted) (PKC-δ (purified isoform) [10]) [%] | relative binding capacity (100-%n, DMSO subtracted) (PKC-α (purified isoform) [11]) [%] | relative binding capacity (100-%n, DMSO subtracted) [12] [%] | relative binding capacity (100-%n, DMSO subtracted) [13] [%] | relative binding capacity (100-%n, DMSO subtracted) (PKC-δ (purified isoform) [14]) [%] | relative binding capacity (100-%n, DMSO subtracted) (PKC-α (purified isoform) [15]) [%] | relative binding capacity (100-%n, DMSO subtracted) [16] [%] | relative binding capacity (100-%n, DMSO subtracted) [17] [%] | relative binding capacity (100-%n, DMSO subtracted) [18] [%] | other results |
| --- | --- | --- | --- | --- | --- | --- | --- | --- | --- | --- | --- | --- | --- |
| KDAQNLIGISL-NH2 (also called peptide PRE 2) [PRE 2] |  |  |  |  |  |  |  |  |  |  |  |  | Band Intensity [1]: 0; Inhibition (%) [1]: 100%; Relative Intensity (%) [1]: 0%; Band Intensity [2]: 160; Inhibition (%) [2]: 38.6%; Relative Intensity (%) [2]: 61.4%; Band Intensity [3]: 0; Inhibition (%) [3]: 100%; Relative Intensity (%) [3]: 0%; Band Intensity [4]: 0; Inhibition (%) [4]: 100%; Relative Intensity (%) [4]: 0%; Band Intensity [5]: 0; Inhibition (%) [5]: 100%; Relative Intensity (%) [5]: 0%; Band Intensity [6]: 323; Inhibition (%) [6]: 23.4%; Relative Intensity (%) [6]: 76.6% |
| Ac-ISIGILQNADK-NH2 (also called peptide PRE 7) [PRE 7] | 2.59 | 6.72 | 0 | 3.06 | 6.59 | 11.1 | 5.42 | 0 | 0 |  |  |  |  |
| RRKKGGKDFVVKR (also called peptide PRE 1; peptide recognition element 1) [PRE 1] | 0 | 0 | 49.4 | 35.7 | 2.1 | 0 | 0 | 45.2 | 0.69 | 13.4 | 19.8 | 13.9 |  |
| Ac-KDANQLIGISI-NH2 (also called peptide PRE 6) [PRE 6] | 0 | 0 | 14 | 17.5 | 0 | 0 | 0.08 | 13.2 | 0 | 6.14 | 0 | 7.93 |  |
| ILEDKGGDAQNLIGISI (also called peptide PRE 8) [PRE 8] | 0 | 0 | 6.68 | 6.96 | 0 | 0 | 1.11 | 3.38 | 0 |  |  |  |  |
| Ac-RDAQNLIGISI-NH2 (also called peptide PRE 11) [PRE 11] | 6.4 | 5.96 | 18.7 | 34.1 | 13.3 | 11 | 7.14 | 21.5 | 0 | 12.5 | 9.86 | 14.2 |  |
